Measured values: patent US20240417475A1 (AFFIMED, published 2024)

Experiments:
[1] = target: recombinant cynomolgus CD16, biotinylated, mFc.silenced/Avi-tagged (cynomolgus, UniProt Q8SPW2 17-208, biotinylated (Avi-tag)); experiment: SPR (Biacore T200), 37 °C, multivalent multi-cycle kinetics, biotin-captured antigen as ligand, construct as analyte, 1:1 binding model, n=3
Method: (§1) For multivalent interaction analysis, biotinylated-mFc.silenced/Avi-tagged antigens were captured (FC2, FC4) to a density of 120-200RU, before CD123×CD16A ICE were injected (concentration: 0-60 nM) for 240s at a flow rate of 40 μL/min and complex was left to dissociate for 300s at the same flow rate.
(§2) After each cycle, chip surfaces were regenerated with 6M guanidine-HCl, 0.25M NaOH and reloaded with Biotin Capture reagent. Interaction kinetics were determined by fitting data from multi-cycle kinetics experiments to a simple 1:1 interaction model using the local data analysis option (Rmax and RI) available within Biacore T200 Evaluation Software (v3.1). Referencing was done against a flow cell without captured ligand (Fc2-Fc1, Fc4-Fc3).

[2] = target: T1, recombinant human CD16A^158V, biotinylated, mFc.silenced/Avi-tagged (human, UniProt P08637 17-208, biotinylated (Avi-tag)); experiment: as above
T1 construct: also called CD16^158V
T1 sequence (P08637 17-208 F176V limits assumed): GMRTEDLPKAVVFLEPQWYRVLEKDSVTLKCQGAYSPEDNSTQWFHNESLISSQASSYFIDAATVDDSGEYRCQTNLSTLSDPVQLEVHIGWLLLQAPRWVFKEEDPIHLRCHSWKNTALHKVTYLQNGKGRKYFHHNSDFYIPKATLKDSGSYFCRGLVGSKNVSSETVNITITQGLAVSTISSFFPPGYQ
Method: as §1, §2

[3] = target: recombinant human CD16A^158F, biotinylated, mFc.silenced/Avi-tagged (human, UniProt P08637 17-208, biotinylated (Avi-tag)); experiment: as above
Chain of recombinant human CD16A^158F, biotinylated, mFc.silenced/Avi-tagged (P08637 17-208): as the sequence (P08637 17-208 F176V limits assumed) above, with V160F counted along it
Method: as §1, §2

[4] = target: T2, human FOLR1 endogenously expressed on tumor cell lines (human, UniProt P15328 25-234); experiment: cell-based or functional assay
T2 sequence (P15328 25-234): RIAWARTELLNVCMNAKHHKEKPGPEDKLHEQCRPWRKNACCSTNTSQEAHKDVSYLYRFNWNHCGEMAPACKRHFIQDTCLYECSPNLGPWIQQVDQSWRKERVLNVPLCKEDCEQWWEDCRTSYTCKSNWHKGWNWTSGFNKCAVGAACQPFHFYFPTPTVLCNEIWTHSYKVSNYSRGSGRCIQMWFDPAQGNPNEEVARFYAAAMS

[5] = target: T3, CD16A endogenously expressed on primary human NK cells (human, UniProt P08637 17-254); experiment: flow cytometry on primary human NK cells, with against without 10 mg/mL polyclonal human IgG
T3 sequence (P08637 17-254 limits assumed): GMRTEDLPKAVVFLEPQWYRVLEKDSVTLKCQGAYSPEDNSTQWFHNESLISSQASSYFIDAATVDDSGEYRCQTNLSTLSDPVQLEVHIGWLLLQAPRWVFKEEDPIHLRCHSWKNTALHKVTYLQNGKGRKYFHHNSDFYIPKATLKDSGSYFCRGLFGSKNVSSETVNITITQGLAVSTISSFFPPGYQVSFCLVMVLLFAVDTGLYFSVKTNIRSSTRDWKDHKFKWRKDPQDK
Method: (§3) 4° C., and resuspended in 50 μL/well of diluted antibody constructs. […] After 40-50 minutes' incubation at 37° C., cells were washed 3-times with ice-cold FACS buffer. […] After the final incubation step, cells were washed 2-times with ice-cold FACS buffer, and the cell pellet was resuspended in 50 μL FACS buffer. Fluorescence intensity of >1×10⁴ viable cells was analyzed by flow cytometry and the median fluorescence intensity (MFI) was determined for each sample.
(§4) Equilibrium dissociation constants (KD) of antibody binding were calculated by plotting MFI values and fitting a non-linear regression model for one-site binding to hyperbolic dose-response curves using GraphPad Prism.

[6] = target: T3, CD16A endogenously expressed on primary …; experiment: flow cytometry on primary human NK cells, biotinylated antibody, 37 C, without IgG, mean of 4
Method: as §3, §4

[7] = target: T2, human FOLR1 endogenously expressed on …; experiment: flow cytometry on IGROV-1 cells (FOLR1 high) at 37 °C, FITC anti-human IgG detection
Method: Cells were collected and centrifuged at 400×g, 5 min, 4° C. Cell pellets were resuspended in FACS buffer (PBS (Invitrogen, cat.: 392-0434) containing 2% h.i. FCS (Invitrogen, cat.: 10500-064), and 0.1% sodium azide (Sigma, cat.: S8032)) at 1-5×10⁶ cells/mL. 100 μL/well of the cell suspension were transferred into U-shaped, 96-well micro plates (0.1-0.5×10⁶ cells per well), cells were pelleted at 400×g, 5 min, 4° C., and resuspended in 100 μL/well of serial dilutions of the indicated antibodies in FACS buffer. After 40-50 min incubation at 37° C., cells were washed 3-times with ice-cold FACS buffer. […] After the final incubation step, cells were washed 2-times with ice-cold FACS buffer, and the cell pellet was resuspended in 100 μL FACS buffer. Fluorescence intensities of >1×10⁴ viable cells were analyzed by flow cytometry and the median fluorescence intensity (MFI) was determined for each sample.

[8] = target: T3, CD16A endogenously expressed on primary …; experiment: flow cytometry on primary human NK cells at 37 °C, biotinylated antibody, streptavidin-FITC, in the presence of 10 mg/mL polyclonal human IgG (competitor)
Method: (§5) Frozen NK cells were thawed, and viability was determined with trypan blue (Sigma-Aldrich, cat.: T8154). Cells have been centrifuged at 400×g, 5 min, 4° C. Cell pellets were resuspended in FACS buffer PBS (Invitrogen, cat.: 392-0434) containing 2% h.i. FCS (Invitrogen, cat.: 10500-064), and 0.1% sodium azide (Sigma, cat.: S8032) at 2×10⁶ cells/mL. 100 μL/well of the cell suspension were transferred into U-shaped 96 well plates, cells were pelleted at 400×g, 5 min. 4° C., and resuspended in 50 μL/well of diluted antibody constructs. […] After 40-50 minutes' incubation at 37° C., cells were washed 3-times with ice-cold FACS buffer. […] After the final incubation step, cells were washed 2-times with ice-cold FACS buffer, and the cell pellet was resuspended in 50 μL FACS buffer. Fluorescence intensity of >1×10⁴ viable cells was analyzed by flow cytometry and the median fluorescence intensity (MFI) was determined for each sample.

[9] = target: T3, CD16A endogenously expressed on primary …; experiment: flow cytometry on primary human NK cells, biotinylated antibody, 37 C, with 10 mg/mL polyclonal human IgG as competitor, mean of 4
Method: as §3, §4

[10] = target: T3, CD16A endogenously expressed on primary …; experiment: flow cytometry on primary human NK cells at 37 °C, biotinylated antibody, streptavidin-FITC, without polyclonal human IgG
Method: as §5

Chain of recombinant cynomolgus CD16, biotinylated, mFc.silenced/Avi-tagged (Q8SPW2 17-208): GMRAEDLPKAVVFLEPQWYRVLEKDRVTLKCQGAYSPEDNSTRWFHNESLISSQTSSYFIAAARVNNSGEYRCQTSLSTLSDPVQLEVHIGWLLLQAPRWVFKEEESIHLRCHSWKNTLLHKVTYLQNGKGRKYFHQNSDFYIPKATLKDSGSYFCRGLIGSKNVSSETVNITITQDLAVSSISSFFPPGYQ

Binder	Kd [1] [nM]	koff [1] [s⁻¹]	kon [1] [M⁻¹ s⁻¹]	Kd [2] [nM]	koff [2] [s⁻¹]	kon [2] [M⁻¹ s⁻¹]	Kd [3] [nM]	koff [3] [s⁻¹]	kon [3] [M⁻¹ s⁻¹]	Phagocytosis [%], 4 h ADCP, DK-MG cells [4] [%]	Phagocytosis [%], 4 h ADCP, HCC-78 cells [4] [%]	Phagocytosis [%], 4 h ADCP, HeLa cells [4] [%]	fold loss in KD induced by IgG [5] [fold]	Kd [6] [nM]	binding result [7]	EC50 (read off the curve) [8] [nM]	Kd [9] [nM]	EC50 (read off the curve) [10] [nM]
scFv-IgAb_264 (CD123-2×CD16a2) (bispecific antibody, also called scFv-IgAb_264 (CD16a1×CD123-2); CD123-1×CD16a2 scFv-IgAb_264) chain 1: QVQLVQSGAEVKKPGASVKMSCKASGYTFTDYYMKWVKQAPGQGLEWIGDIIPSNGATFYNQKFKGKATLTVDRSISTAYMHLNRLRSDDTAVYYCTRSHLLRASWFAYWGQGTLVTVSSASTKGPSVFPLAPSSKSTSGGTAALGCLVKDYFPEPVTVSWNSGALTSGVHTFPAVLQSSGLYSLSSVVTVPSSSLGTQTYICNVNHKPSNTKVDKKVEPKSCDKTHTCPPCPAPEFEGGPSVFLFPPKPKDTLMISRTPEVTCVVVAVSHEDPEVKFNWYVDGVEVHNAKTKPREEQYNSTYRVVSVLTVLHQDWLNGKEYKCKVSNKALPAPIEKTISKAKGQPREPQVYTLPPSREEMTKNQVSLTCLVKGFYPSDIAVEWESNGQPENNYKTTPPVLDSDGSFFLYSKLTVDKSRWQQGNVFSCSVMHEALHNHYTQKSLSLSPGGGGGSGGGGSGGGGSGGGGSGGGGSGGGGSSYELTQPLSVSVALGQTARITCGGHNIGSKNVHWYQQKPGQAPVLVIYQDNKRPSGIPERFSGSNSGNTATLTISRAQAGDEADYYCQVWDNYNVLFGCGTKLTVLGGSGGSGGSGGSGGSGGSGGSQVQLVQSGAEVKKPGASVKVSCKASGYTFTSYYMHWVRQAPGQCLEWMGAIEPRYGSTSYAQKFQGRVTMTRDTSTSTVYMELSSLRSEDTAVYYCARGSAYYYDFADYWGQGTLVTVSS chain 2: not shown	2.4	0.013	5.2e+06	0.43	0.0027	6.3e+06	0.567	0.0036	6.4e+06	–	–	–	–	–	–	–	–	–
scFv-IgAb_444 (RSV×CD16A) (bispecific antibody, also called RSV/CD16A scFv-IgAb_444; RSV(NIST)×CD16A) chain 1: QVTLRESGPALVKPTQTLTLTCTFSGFSLSTAGMSVGWIRQPPGKALEWLADIWWDDKKHYNPSLKDRLTISKDTSKNQVVLKVTNMDPADTATYYCARDMIFNFYFDVWGQGTTVTVSSASTKGPSVFPLAPSSKSTSGGTAALGCLVKDYFPEPVTVSWNSGALTSGVHTFPAVLQSSGLYSLSSVVTVPSSSLGTQTYICNVNHKPSNTKVDKKVEPKSCDKTHTCPPCPAPEFEGGPSVFLFPPKPKDTLMISRTPEVTCVVVAVSHEDPEVKFNWYVDGVEVHNAKTKPREEQYNSTYRVVSVLTVLHQDWLNGKEYKCKVSNKALPAPIEKTISKAKGQPREPQVYTLPPSREEMTKNQVSLTCLVKGFYPSDIAVEWESNGQPENNYKTTPPVLDSDGSFFLYSKLTVDKSRWQQGNVFSCSVMHEALHNHYTQKSLSLSPGGGGGSGGGGSGGGGSGGGGSGGGGSGGGGSSYELTQPLSVSVALGQTARITCGGNNIGSKSVHWYQQKPGQAPVLVIYQDKKRPSGIPERFSGSNSGNTATLTISRAQAGDEADYYCQVWDDYIVLFGCGTKLTVLGGSGGSGGSGGSGGSGGSGGSQVQLVQSGAEVKKPGASVKVSCKASGYTFTNYYMQWVRQAPGQCLEWMGIINPSGGVTSYAQKFQGRVTMTRDTSTSTVYMELSSLRSEDTAVYYCARGSAYYYDFADYWGQGTLVTVSSG chain 2: DIQMTQSPSTLSASVGDRVTITCSASSRVGYMHWYQQKPGKAPKLLIYDTSKLASGVPSRFSGSGSGTEFTLTISSLQPDDFATYYCFQGSGYPFTFGGGTKVEIKRTVAAPSVFIFPPSDEQLKSGTASVVCLLNNFYPREAKVQWKVDNALQSGNSQESVTEQDSKDSTYSLSSTLTLSKADYEKHKVYACEVTHQGLSSPVTKSFNRGEC	–	–	–	–	–	–	–	–	–	0	0	0	5	3.8	no binding (tested: about 500 nM)	10 to 20	19.9	~4
